From the DeepSol protein solubility set

Experiment: soluble on expression in E. coli; label from the status in PepcDB or PDB records

Row | Sequence | soluble on expression in E. coli
1 | MIAQLQKSLIQQNSTFEKKNNVEVAPIAKISLKDRLASLNNSAEQWKSRPERQPAVQQRRTSANVLQDLPIFQRAQQLHQQQQRPQSFPVVQEKPCDITSGLKKFFGSNPTTSGASSSLPKISEITASNDIDLDAISSKATPVLKTVTRPRAPNRKKSDKSSTFDERIRLDAVKIDEEAFAVVEEEPEKLETQEQAIAAIQGAKQLLKSPTKVSPYPDVMLIQVRGSKNVDVRLVAPAMSSVHEVACFVVVHQKHLMKYEGLYSNILEKTKASQLCIEILGKSDLNCTAESIVTVTGASRSTLSKLLFCSENSESSSENNNYHQASSVEPFETTVAKLNLVLRIAGDNTAETCSRRERLSYEIMKPSEVLIFDFGSEIYVWTGRYSNKVSSAYAQEYAKQLMKKPVKNGKFILGDAESIDQDGRPEWTLSRKIHQGVLDTLFKAKFSDWPETREVLTTCKPRALISKKNPEVKTYEDVKVVNQDDEVADLVERMLQEQELDPILVLEDQEIDRKIHDVISEDRSLWVLRGEVLQSIEEFTEHFDSRRCYVLRWKYRIQKSGVRRIKTGKEEERETGRSRIAFWYWLGEHTTPKQHGLCALRIKEIDRDNSPRIRIADGNEPALFLALFDGKFMVSSDISEMKPLRRYVVIGANSRETSLREIDDLNSPLRSHAAYIEVEKDILGPSSVVCGANCTEDQVHFVLAHAEYMRQKAGVKGNSAEIEVEGDKKSRSWVNSNGRKRAMRVWRLFDNESEQVNHLSGHKNCAFTFSQQVLKETILIDVGDALWLWSEEVITTFALKVAEKYWKDRSGPAKVVYKGAEPEQFKGLFMKWEMFEVEDDKPSDPPRDVSDLLKERCRTFSLEELKERTSLPAGMDMRRLESYLTDDDFMKVFKIERSEFYAQKTWKQNDARKRVGLF | not soluble
2 | MAHHHHHHMPLNAQQLLFHLARRNSAPPWRWFPTATENKLFERLDTSGSPTAQVVYSQFVQARLQGSCSAGTAPIQLDLFLDELTPSDDGDYILRCPLANSHLMKRLVVPAPMRIAMHGLLQEVIDVFQQAGIRYWAAGGTLLGAVRHGCIIPWDDDVDLAISVEDELKLRSAFKYPCAHGSDDNIGDNSGDCNSEYSSESSSNEVEKNDGNNGGNLVLEYVPLFGYKVYSRLLPPPFPSPSLPGVGSSCLRYGYFVDIFIMRESKNRFVLARESAQRTWPDEWWHVDELFPLLQKPFAAVAACASEQHPQTALQLSVGRYPLMHLHRLYGETCMQEALIPRELHGRELSHSLRIPLELL | not soluble
3 | MKAMPIDDPIDGYVAELSRALHGPRRAKRDLIAEVRDGLIDAAEAYQAAGLDRPEAERRAVAEFGTVGEIAPGLQEELAAATGQRLGALLFLSAPRSPGT | not soluble
4 | MPKTQGLSPESLISQFARCEEGWCVQYHDVILASAFQPVISITHKRVVGYEALVRATDANNAQISPDTLFARAQARGETILLDRLTRCLHVANFSEQDTGSCWLFLNVLPQMFDAGIAPSVFIEALCAHFALPPTRVVLEVIEQPSRNEPALARTLDMIQHGDFLIAVDDFGTGFSNFDRIWQIKPDIVKLDRSILERSLAASDAHRIVHHLVTMLHHAGTMVLAEGVENEDALQILMDADVDFVQGFCFGLPDPSLERARRAAPARIETAWQRFAERVKERRGDVVHPGFDTIERIVLAGAADYAQARDLRGAAQRLLTNPIVRRVFVAEANGEQVEPSVTNETPDTPSATTRRLAPLLPELHCNWSRRAYFQRAVAAPGRVALMGPHFSLTDGRDCYTAAVAIHLGTTLKVFCVDFDFSSYGDGQ | not soluble
5 | AYVITEPCIGTKDASCVEVCPVDCIHEGEDQYYIDPDVCIDCGACEAVCPVSAIYHEDFVPEEWKSYIQKNRDFFKK | soluble
6 | GSPLPAAGFKKQQRKFQYGNYCKYYGYRNPSCEDGRLRVLKPEWFRGRDVLDLGCNVGHLTLSIACKWGPSRMVGLDIDSRLIHSARQNIRHYLSEELRLPPQTLEGDPGAEGEEGTTTVRKRSCFPASLTASRGPIAAPQVPLDGADTSVFPNNVVFVTGNYVLDRDDLVEAQTPEYDVVLCLSLTKWVHLNWGDEGLKRMFRRIYRHLRPGGILVLEPQPWSSYGKRKTLTETIYKNYYRIQLKPEQFSSYLTSPDVGFSSYELVATPHNTSKGFQRPVYLFHKARSPSH | soluble
7 | MSLNTISGTHFNYHQVCRRKLWLFSAGITMEHTSDLVYEGKLIHETTYQQRPERYQELELDGIKIDFYDAKNRVVHEVKKSNKISPAHRLQLLYYLYVLERNGVLGATGILEYPTLRKKEEVILSDIDRERIREIEQEILQIISHEDCPPVIDSGICKNCSYYEFCFSGEEQEGHHHHHH | soluble
8 | PYSYDLIFGDVNTTNFYAQFAKKHNTHMWSKIQSTQNGEIGFHKNSKTGQQRH | soluble
9 | MDVTATPRPHSNTQRPTQAYYVPRKLLECGRGPQSKPTTIDKNEKPIQTSAQQKQKPRPLMDTVISAPPSSLKEKSPQSNRQTKSNKKSSPPPRKSPVMTSSYQVQYPNSPRDLHLVSSTPSSRSSSSMSSNNGIVSPTLTVSSPRIVKGGPQKYSMSRPNAFAPMIAQSDEKECICDRKNTHVVCKRCGYECVGRVQVTCGKHPLILALNDLRECPNPVCHSVQLLECDELDDQDVHDDGVEQLLAEPIEKIDLLS | not soluble
10 | MPTGKSESSDISEVVGNMEISKVEGLEACIGMSHEVSTTPAAELAAFRARKVALITGISGQDGSYLAELLLSKGYKVHGIIRRSSSFNTARIEHLYSNPITHHGDSSFSLHYGDMTDSSCLIKLISTIEPTEVYHLAAQSHVKVSFDLPEYTAEVDAVGTLRLLDAIHACRLTEKVRFYQASTSELYGKVQEIPQSEKTPFYPRSPYAVAKMYGYWIVVNYREAYNMFACNGILFNHESPRRGETFVTRKITRSVAKISLGQQESIELGNLSALRDWGHAREYVEAMWRILQHDSPDDFVIATGKQFSVREFCNLAFAEIGEVLQWEGEGVEEVGKNKDGVIRVKVSPKYYRPTEVETLLGNAEKAKKTLGWEAKVTVPELVKEMVASDIILMKSNPMA | not soluble
11 | MSLKTYDAFPEPIGGYTVGRTQMDFEYTASDHSKRELTAFVYYPSDSSEGKTTSTYMFPEVYEMFNEQPLVTALKDVFSIDIKTQCYDDLALSGKEKRYPVLFYVCGGGGSPEWGTVICTDLASMGYVVVSIGHQNSTMYKRKDGRLFNVSKDFSDVIMAFSEDPEMLALAGKMEMRPDDETAIEMCHNVLTLPILAKLTEYSELQAEDVRYVADYLYKLDSGELNSIFKGRLLLDIGMGIVGHSYGGPTTAIVCRDDDRFACGIGLDSGAFGLLDSDLKKPFLLLFCEPNYNMNAIIGANNSMETYYFSVDRVAHLDYCDIVFTSVNEELRGERDAMEMRNLVTDYTKNFFDHYILLKAASVESLAYDGVDLIKKTSNKEGHHHHHH | soluble
12 | MVTETLSRKADYNANKLRKRLRRLVGTAIADFNMIEKGDRVMVCLSGGKDSYALLDILRNLQAHAPLDFELIAVNLDQKQPGFPEHVLPGYLSEINMPFRIVEQDTYSVVKRVIAEGKTTCSLCSRLRRGVLYRVATELGATKIALGHHRDDILETFFLNMFYGGKLKAMPPKLVSDDGCHVVIRPLAYCKEKDLAAYAWHAQFPIIPCNLCGSQPNLQRQVIKEMMQQWDKKYPGRLETMFTALQNIQLSHLADTSRYDFVGLKPHGIAIEEGDKAFDEEPLSVIPVDMDHDDDSTFEPENEHDGGAVQGGVI | not soluble
13 | MSLIRAMQKSDYEAVYKLWCEIKGFGIRSIDDSKENIENFLDRNPNLSVVAVIDEEIVGSILCGHDGRTGGFYHVCVHKDHRKKGIAHEMAKFCLEALKAQKINKIALIAFKNNDLGNEFWKHYGFTLREDANYYDLSLNEYNQTSFNAEGHHHHHH | soluble
14 | MPYLLYHHFDPTFDHQNLKPGLAVGKGKVDHYNLGYVQNVVKGQVLAEFIPIDDTDDPVIDRNHIFEEPLLPVGPNCKVDPDSPLRVVADANGYVFYNDGLITVKRMLNVRRDVDFHTGNIFFVSDIAVHGDVRAGFEVQGNNILVKGIIEGATVRARGSLAVEGGARGSGGSGLLDAGDTLRVPFAESMELRAHGNILIEKFCLHSLVYAATNLVVKNRLQGGTVHCNGLVYVETHLGNPKGTPTATRINMGYDPFTMRKLDRLEQHIRELQDSLTHIAGIAGNLGSDSAPGKRLDNARKKLNRLIRQREALWAALTEDEARAALCRVVVPGTVYPGVEISIGKAFFEVEHEMNNVSFSLADGSIVVTSPAIIKKKALEHHHHHH | not soluble
